Measured values: patent US20030153020

Molecular target: T1, LPXTG peptide DABCYL-QALPETGEE-EDANS
T1 chain: QALPETGEE

B1: SrtADN (SrtA in which the NH2-terminal membrane anchor segment is replaced with a six histidine tag) (protein)
chain: KPHIDNYLHDKDKDEKIEQYDKNVKEQASKDKKQQAKPQIPKDKSKVAGYIEIPDADIKEPVYPGPATPEQLNRGVSFAEENESLDDQNISIAGHTFIDRPNYQFTNLKAAKKGSMVYFKVGNETRKYKMTSIRDVKPTDVGVLDEQKGKDKQLTLITCDDYNEKTGVWEKRKIFVATEVK
LPXTG peptide cleavage activity of MTSET-inactivated SrtADN after 10 mM DTT: restored 80% of LPXTG peptide cleavage activity | cleavage of LPXTG peptide in the presence of 0.2 M NH2OH (fluorescence): Addition of 0.2 M NH2OH to this reaction resulted in an increase in fluorescence | cleavage of LPXTG peptide measured as an increase in fluorescence: SrtADN catalyzed cleavage of the substrate | hydroxylaminolysis of LPXTG peptide after pre-incubation with MTSET: pre-incubation with MTSET abolished all enzymatic activity
